T1: human IL-5 receptor (Homo sapiens, UniProt Q01344)
T1 construct: host or cells: subclone of HL60 induced towards eosinophil differentiation with sodium butyrate (endogenous receptor)
T1 sequence (Q01344 21-420): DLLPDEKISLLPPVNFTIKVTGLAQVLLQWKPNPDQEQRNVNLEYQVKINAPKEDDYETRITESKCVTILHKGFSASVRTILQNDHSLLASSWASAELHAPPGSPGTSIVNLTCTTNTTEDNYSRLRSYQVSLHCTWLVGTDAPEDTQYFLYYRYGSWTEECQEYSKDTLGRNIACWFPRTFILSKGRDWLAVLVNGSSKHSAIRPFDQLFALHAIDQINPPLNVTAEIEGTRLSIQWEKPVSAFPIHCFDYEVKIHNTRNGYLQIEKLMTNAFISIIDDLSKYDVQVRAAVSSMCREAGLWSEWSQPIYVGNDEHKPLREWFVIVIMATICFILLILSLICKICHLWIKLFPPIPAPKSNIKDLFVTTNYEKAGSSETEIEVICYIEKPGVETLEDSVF
T1 sequence (P32927 17-897 partner): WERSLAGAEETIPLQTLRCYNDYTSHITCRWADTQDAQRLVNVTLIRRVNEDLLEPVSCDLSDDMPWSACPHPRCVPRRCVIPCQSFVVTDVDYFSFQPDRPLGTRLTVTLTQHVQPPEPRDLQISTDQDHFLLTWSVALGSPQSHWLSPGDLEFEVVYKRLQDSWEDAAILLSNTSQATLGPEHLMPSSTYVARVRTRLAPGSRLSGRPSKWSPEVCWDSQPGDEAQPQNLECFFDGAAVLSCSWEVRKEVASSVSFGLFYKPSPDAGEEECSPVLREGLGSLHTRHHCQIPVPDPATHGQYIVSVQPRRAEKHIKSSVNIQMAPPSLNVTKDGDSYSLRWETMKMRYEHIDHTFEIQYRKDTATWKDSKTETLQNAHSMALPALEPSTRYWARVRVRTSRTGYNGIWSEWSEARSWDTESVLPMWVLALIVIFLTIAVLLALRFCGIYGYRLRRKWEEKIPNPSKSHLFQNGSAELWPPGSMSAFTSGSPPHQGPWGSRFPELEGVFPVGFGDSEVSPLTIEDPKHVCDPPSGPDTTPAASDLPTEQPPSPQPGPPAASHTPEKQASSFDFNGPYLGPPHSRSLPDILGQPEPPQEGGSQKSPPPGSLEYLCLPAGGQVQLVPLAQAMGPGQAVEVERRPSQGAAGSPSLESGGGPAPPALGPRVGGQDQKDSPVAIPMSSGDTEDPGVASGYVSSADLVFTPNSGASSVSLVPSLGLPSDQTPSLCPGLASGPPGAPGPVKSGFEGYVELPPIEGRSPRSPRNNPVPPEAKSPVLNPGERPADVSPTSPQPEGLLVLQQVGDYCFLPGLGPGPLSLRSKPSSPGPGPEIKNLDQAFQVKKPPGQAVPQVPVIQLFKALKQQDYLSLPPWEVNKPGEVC


Legend:
[1] = molecular target: T1, human IL-5 receptor; conditions: HL60 subclone, eosinophilic differentiation initiated with sodium butyrate; read-out: Kd of IL-5 binding sites; cited from earlier work
[2] = molecular target: extracellular domain (ECD) of the IL-5 receptor α chain, soluble (human) (UniProt Q01344); assay: competition with [125I] IL-5 on immobilised soluble IL-5Rα; grade ++ = IC50 of 500 nm or less

Molecule	Kd [1] [nM]	IC50 [2] [nM]
IL-5: lymphokine secreted by T cells and mast cells having biological activities on B cells and eosinophils	0.03	–
DGYVCVEWARCPMCT [peptide … (SEQ ID NO:8)]	–	< 500
DGFVCVEWARCPNCR [peptide … (SEQ ID NO:9)]	–	< 500
DGYVCVEWARCPTCK [peptide … (SEQ ID NO:7)]	–	< 500

— patent publication US5677280A, “Peptides and compounds that bind to the IL-5 receptor” (Glaxo Group Limited, priority 1995, dated 1997)
